Three molecules from PMC3399738 can be followed below.

Data set [1] deals with T1, RPA (human heterotrimer) (human, UniProt P27694;P15927;P35244 1-616;1-270;1-121). Briefly: EMSA. In general terms: In EMSA bound probe runs differently from free probe, usually more slowly.
The target in data set [2] is T1, RPA (human heterotrimer). The experiment in a line: EMSA. This is another data set of the same source.
For data set [3], the target named is T1, RPA (human heterotrimer). The experiment in a line: pull-down.
Another data set has as its target SSB (Escherichia coli, UniProt P0AGE0 1-178). Briefly: pull-down.

T1 sequence (P27694 whole entry, chain 1 of 3): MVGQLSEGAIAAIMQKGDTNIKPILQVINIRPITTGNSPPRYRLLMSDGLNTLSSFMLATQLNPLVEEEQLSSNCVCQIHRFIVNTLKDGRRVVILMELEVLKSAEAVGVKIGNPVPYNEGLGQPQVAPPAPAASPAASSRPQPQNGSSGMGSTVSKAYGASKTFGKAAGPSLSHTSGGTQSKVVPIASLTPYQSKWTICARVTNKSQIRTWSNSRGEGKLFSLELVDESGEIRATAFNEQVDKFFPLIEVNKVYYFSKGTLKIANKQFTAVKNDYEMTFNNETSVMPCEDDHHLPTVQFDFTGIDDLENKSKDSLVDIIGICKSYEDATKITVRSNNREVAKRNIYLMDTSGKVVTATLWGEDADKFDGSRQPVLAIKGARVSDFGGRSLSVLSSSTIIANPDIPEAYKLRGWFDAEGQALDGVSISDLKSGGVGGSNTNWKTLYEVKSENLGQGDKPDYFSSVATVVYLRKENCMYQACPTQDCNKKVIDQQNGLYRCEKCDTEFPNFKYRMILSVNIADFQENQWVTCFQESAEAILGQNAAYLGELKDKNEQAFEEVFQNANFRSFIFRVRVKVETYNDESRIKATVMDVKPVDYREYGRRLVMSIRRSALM
T1 sequence (P15927 whole entry, chain 2 of 3): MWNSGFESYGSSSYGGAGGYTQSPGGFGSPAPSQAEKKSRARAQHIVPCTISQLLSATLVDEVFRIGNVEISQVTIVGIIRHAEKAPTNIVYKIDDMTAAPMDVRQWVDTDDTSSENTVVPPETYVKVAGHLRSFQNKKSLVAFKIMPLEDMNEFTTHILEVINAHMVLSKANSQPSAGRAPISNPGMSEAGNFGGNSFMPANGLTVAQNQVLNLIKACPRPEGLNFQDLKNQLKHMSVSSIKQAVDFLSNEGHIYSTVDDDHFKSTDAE
T1 sequence (P35244 whole entry, chain 3 of 3): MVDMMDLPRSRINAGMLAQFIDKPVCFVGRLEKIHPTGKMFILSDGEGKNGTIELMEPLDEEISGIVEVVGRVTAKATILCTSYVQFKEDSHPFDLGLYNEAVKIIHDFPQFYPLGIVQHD
Sequence of SSB (P0AGE0 whole entry): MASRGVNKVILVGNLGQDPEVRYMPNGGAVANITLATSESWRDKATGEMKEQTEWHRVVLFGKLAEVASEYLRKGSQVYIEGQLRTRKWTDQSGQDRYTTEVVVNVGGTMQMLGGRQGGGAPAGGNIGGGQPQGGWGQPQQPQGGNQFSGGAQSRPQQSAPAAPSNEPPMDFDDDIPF

With TTTTTTTTTTTTTTTTTTTTTTTTTTTTTT (ssDNA) [polyT(30) 5' IRDye-700], in the data set with RPA (human heterotrimer) [1], the binding result is “binds”.

B1: dT30/dA30 duplex (dsDNA)
DNA 1: TTTTTTTTTTTTTTTTTTTTTTTTTTTTTT
DNA 2: AAAAAAAAAAAAAAAAAAAAAAAAAAAAAA
Turning to B1, in the data set with RPA (human heterotrimer) [2], the binding result is on record as “binds”.

Regarding TTTTTTTTTTTTTTTTTTTTTTTTTTTTTT (ssDNA) [polyT(30) 3' biotin], the binding result with RPA (human heterotrimer) [3] and with SSB was “binds” in each case.
